Results published in publication PMC2764420.
Like-named read-outs stand apart in the source and are kept apart here.

Experiments:
Tn10 transposase [1] = assay: cross-linking
Tn10 transposase [2] = assay: cross-linking; remark: listed apart in the source
[3] = molecular target: pre-unfolded Tn10 transpososome; assay: native gel or EMSA
[4] = molecular target: folded Tn10 transpososome (UniProt P0A6X7); assay: native gel or EMSA
Sequence of UniProt P0A6X7 (P0A6X7 whole entry, looked up): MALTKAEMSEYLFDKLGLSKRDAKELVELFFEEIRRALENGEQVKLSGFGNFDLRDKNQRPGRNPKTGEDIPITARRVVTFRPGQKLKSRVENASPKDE

Molecule | stoichiometry N (Tn10 transposase [1]) | stoichiometry N (Tn10 transposase [2]) | Kd [3] [pM] | percent of transpososome converted to an H-NS-bound form [3] [%] | percent of transpososome converted to an H-NS form at 6 nM H-NS [4] [%]
Tn10 transposase (enzyme) | 2 | 2 |  |  | 
H-NS (histone-like nucleoid-structuring protein), wild type (natural protein) MSEALKILNNIRTLRAQARECTLETLEEMLEKLEVVVNERREEESAAAAEVEERTRKLQQYREMLIADGIDPNELLNSLAAVKSGTKAKRAQRPAKYSYVDENGETKTWTGQGRTPAVIKKAMDEQGKSLDDFLIKQ |  |  | 300 | > 95 | 5
